{
  "source": "paper PMC9482650",
  "about": "“Quantitative fragmentomics allow affinity mapping of interactomes” (Nature Communications, 2022)",
  "assay_in_all_cases": "holdup assay",
  "parameters_in_all_cases": "key: below the threshold = too weak to quantify, mostly under pKd 3.1 to 4",
  "conditions_in_all_cases": "plain residues with an end cap or a label only (N-terminal biotin on a linker: ado-ado)",
  "key": {"PICK1, Q9NRD5": {"biological_target": "PICK1, Q9NRD5", "sequence (Q9NRD5 17-115)": "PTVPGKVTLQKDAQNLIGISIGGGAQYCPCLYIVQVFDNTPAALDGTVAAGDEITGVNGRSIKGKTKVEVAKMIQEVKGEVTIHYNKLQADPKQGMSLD"}, "FRMPD2_3, Q68DX3": {"biological_target": "FRMPD2_3, Q68DX3", "sequence (Q68DX3 1073-1166)": "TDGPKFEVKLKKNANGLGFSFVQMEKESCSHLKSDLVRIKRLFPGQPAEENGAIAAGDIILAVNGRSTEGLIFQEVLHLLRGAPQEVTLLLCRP"}, "NOS1, P29475": {"biological_target": "NOS1, P29475", "sequence (P29475 9-101)": "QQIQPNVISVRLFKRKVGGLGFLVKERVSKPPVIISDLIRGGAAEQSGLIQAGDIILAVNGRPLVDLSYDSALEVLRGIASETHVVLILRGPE"}, "Inadl_8, Q8NI35": {"biological_target": "Inadl_8, Q8NI35", "sequence (Q8NI35 1425-1530)": "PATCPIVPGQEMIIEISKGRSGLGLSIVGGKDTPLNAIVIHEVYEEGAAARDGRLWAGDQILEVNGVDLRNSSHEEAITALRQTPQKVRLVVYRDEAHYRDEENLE"}, "NHERF3_1, Q5T2W1": {"biological_target": "T1, NHERF3_1, Q5T2W1", "T1 sequence (Q5T2W1 4-100, limits assumed, looked up)": "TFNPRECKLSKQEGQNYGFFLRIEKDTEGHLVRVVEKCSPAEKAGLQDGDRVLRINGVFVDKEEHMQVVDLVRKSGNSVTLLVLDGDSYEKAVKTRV"}, "AHNAK1, Q09666": {"biological_target": "AHNAK1, Q09666", "sequence (Q09666 4-100)": "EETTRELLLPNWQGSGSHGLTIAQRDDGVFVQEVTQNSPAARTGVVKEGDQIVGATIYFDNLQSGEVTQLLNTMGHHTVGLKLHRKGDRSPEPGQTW"}, "PDLIM1, O00151": {"biological_target": "PDLIM1, O00151", "sequence (O00151 1-87)": "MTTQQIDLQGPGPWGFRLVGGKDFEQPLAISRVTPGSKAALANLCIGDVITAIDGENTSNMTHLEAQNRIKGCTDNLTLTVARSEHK"}, "DLG3_1, Q92796": {"biological_target": "T2, DLG3_1, Q92796", "T2 sequence (Q92796 125-227, limits assumed, looked up)": "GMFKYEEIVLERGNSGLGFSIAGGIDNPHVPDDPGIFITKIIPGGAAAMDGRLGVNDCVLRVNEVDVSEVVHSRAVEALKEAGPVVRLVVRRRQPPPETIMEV"}, "DLG3_3, Q92796": {"biological_target": "T3, DLG3_3, Q92796", "T3 sequence (Q92796 374-475, limits assumed, looked up)": "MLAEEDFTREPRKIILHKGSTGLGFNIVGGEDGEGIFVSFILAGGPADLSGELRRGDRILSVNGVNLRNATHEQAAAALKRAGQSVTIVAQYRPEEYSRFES"}, "IL16_3, Q14005": {"biological_target": "IL16_3, Q14005", "sequence (Q14005 1107-1207)": "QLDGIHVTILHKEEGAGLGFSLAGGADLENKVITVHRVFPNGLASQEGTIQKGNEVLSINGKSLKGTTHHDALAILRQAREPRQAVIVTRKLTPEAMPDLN"}, "SYNJ2BP, P57105": {"biological_target": "T4, SYNJ2BP, P57105", "T4 sequence (P57105 8-110, limits assumed, looked up)": "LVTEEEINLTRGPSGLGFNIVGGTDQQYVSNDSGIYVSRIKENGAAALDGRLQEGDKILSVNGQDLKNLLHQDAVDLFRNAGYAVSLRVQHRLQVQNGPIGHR"}, "GRID2IP_2, A4D2P6": {"biological_target": "GRID2IP_2, A4D2P6", "sequence (A4D2P6 272-370)": "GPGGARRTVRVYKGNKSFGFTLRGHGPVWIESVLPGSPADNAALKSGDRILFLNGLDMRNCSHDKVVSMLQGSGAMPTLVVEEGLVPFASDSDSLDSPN"}, "MPP2, Q14168": {"biological_target": "T5, MPP2, Q14168", "T5 sequence (Q14168 180-250, limits assumed, looked up)": "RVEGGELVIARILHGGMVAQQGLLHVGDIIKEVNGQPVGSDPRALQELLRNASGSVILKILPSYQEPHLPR"}, "LNX2_2, Q8N448": {"biological_target": "T6, LNX2_2, Q8N448", "T6 sequence (Q8N448 334-432, limits assumed, looked up)": "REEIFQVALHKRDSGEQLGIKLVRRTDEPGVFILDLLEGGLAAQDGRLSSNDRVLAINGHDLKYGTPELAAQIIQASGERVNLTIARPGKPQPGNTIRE"}, "GRIP1_3, Q9Y3R0": {"biological_target": "T7, GRIP1_3, Q9Y3R0", "T7 sequence (Q9Y3R0 247-346, limits assumed, looked up)": "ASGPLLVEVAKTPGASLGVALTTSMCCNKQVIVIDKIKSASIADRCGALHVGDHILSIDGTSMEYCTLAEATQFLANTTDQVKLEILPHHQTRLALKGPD"}, "GRIP1_5, Q9Y3R0": {"biological_target": "T8, GRIP1_5, Q9Y3R0", "T8 sequence (Q9Y3R0 568-668, limits assumed, looked up)": "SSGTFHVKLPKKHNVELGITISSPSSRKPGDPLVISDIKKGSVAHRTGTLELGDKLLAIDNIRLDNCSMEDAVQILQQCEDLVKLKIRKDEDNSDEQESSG"}, "APBA1_1, Q02410": {"biological_target": "T9, APBA1_1, Q02410", "T9 sequence (Q02410 651-752, limits assumed, looked up)": "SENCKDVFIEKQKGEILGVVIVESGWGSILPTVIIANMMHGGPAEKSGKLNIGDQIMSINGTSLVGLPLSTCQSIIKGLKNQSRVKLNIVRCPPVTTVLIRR"}, "SNX27, Q96L92": {"biological_target": "SNX27, Q96L92"}, "GRIP2_5, Q9C0E4": {"biological_target": "GRIP2_5, Q9C0E4", "sequence (Q9C0E4 544-642)": "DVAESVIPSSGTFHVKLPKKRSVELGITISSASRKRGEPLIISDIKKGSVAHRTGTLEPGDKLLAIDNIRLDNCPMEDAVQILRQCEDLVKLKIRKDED"}, "TIAM2, Q8IVF5": {"biological_target": "T10, TIAM2, Q8IVF5", "T10 sequence (Q8IVF5 885-986, limits assumed, looked up)": "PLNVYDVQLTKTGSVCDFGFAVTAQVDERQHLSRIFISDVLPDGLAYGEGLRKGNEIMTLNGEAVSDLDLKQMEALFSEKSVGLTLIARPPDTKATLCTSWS"}, "HTRA1, Q92743": {"biological_target": "HTRA1, Q92743", "sequence (Q92743 360-477)": "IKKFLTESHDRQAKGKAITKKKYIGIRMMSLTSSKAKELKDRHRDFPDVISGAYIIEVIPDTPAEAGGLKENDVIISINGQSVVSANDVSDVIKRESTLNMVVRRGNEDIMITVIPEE"}, "RHPN1, Q8TCX5": {"biological_target": "T11, RHPN1, Q8TCX5", "T11 sequence (Q8TCX5 508-602, limits assumed, looked up)": "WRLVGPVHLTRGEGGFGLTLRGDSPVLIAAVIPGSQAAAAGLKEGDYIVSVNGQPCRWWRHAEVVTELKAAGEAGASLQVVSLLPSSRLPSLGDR"}, "APBA1_2, Q02410": {"biological_target": "T12, APBA1_2, Q02410", "T12 sequence (Q02410 742-832, limits assumed, looked up)": "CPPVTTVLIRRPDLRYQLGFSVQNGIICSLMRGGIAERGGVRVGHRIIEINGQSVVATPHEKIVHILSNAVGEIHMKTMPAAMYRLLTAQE"}, "MAGI1_1, Q96QZ7": {"biological_target": "MAGI1_1, Q96QZ7", "sequence (Q96QZ7 1-106)": "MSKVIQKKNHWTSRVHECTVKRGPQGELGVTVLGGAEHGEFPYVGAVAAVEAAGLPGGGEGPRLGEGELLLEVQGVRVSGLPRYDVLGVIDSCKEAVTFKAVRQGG"}, "DLG4_1, P78352": {"biological_target": "DLG4_1, P78352", "sequence (P78352 62-152)": "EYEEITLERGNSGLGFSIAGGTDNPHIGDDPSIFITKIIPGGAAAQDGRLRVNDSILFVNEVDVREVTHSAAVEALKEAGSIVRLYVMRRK"}, "GRIP2_4, Q9C0E4": {"biological_target": "GRIP2_4, Q9C0E4", "sequence (Q9C0E4 446-548)": "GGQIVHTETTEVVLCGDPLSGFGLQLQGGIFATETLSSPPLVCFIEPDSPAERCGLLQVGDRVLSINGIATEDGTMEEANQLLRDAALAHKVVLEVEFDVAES"}},
  "data": [
    {"binder": "LRSPRTPSEV", "note": "[OR10G3, Q8NGC4]", "values": [
      {"measurement": "pKd", "setting": "PICK1, Q9NRD5", "value": "below the threshold"},
      {"measurement": "pKd", "setting": "FRMPD2_3, Q68DX3", "value": "below the threshold"},
      {"measurement": "pKd", "setting": "NOS1, P29475", "value": 3.76},
      {"measurement": "pKd", "setting": "Inadl_8, Q8NI35", "value": 4.18},
      {"measurement": "pKd", "setting": "NHERF3_1, Q5T2W1", "value": "below the threshold"},
      {"measurement": "pKd", "setting": "AHNAK1, Q09666", "value": "below the threshold"},
      {"measurement": "pKd", "setting": "PDLIM1, O00151", "value": "below the threshold"},
      {"measurement": "pKd", "setting": "DLG3_1, Q92796", "value": "below the threshold"},
      {"measurement": "pKd", "setting": "DLG3_3, Q92796", "value": "below the threshold"},
      {"measurement": "pKd", "setting": "IL16_3, Q14005", "value": "below the threshold"},
      {"measurement": "pKd", "setting": "SYNJ2BP, P57105", "value": 4.61},
      {"measurement": "pKd", "setting": "GRID2IP_2, A4D2P6", "value": "below the threshold"},
      {"measurement": "pKd", "setting": "MPP2, Q14168", "value": "below the threshold"},
      {"measurement": "pKd", "setting": "LNX2_2, Q8N448", "value": "below the threshold"},
      {"measurement": "pKd", "setting": "GRIP1_3, Q9Y3R0", "value": "below the threshold"},
      {"measurement": "pKd", "setting": "GRIP1_5, Q9Y3R0", "value": "below the threshold"},
      {"measurement": "pKd", "setting": "APBA1_1, Q02410", "value": "below the threshold"},
      {"measurement": "pKd", "setting": "SNX27, Q96L92", "value": "below the threshold"},
      {"measurement": "pKd", "setting": "GRIP2_5, Q9C0E4", "value": "below the threshold"},
      {"measurement": "pKd", "setting": "TIAM2, Q8IVF5", "value": "below the threshold"},
      {"measurement": "pKd", "setting": "HTRA1, Q92743", "value": 3.58},
      {"measurement": "pKd", "setting": "RHPN1, Q8TCX5", "value": "below the threshold"},
      {"measurement": "pKd", "setting": "APBA1_2, Q02410", "value": 4.1},
      {"measurement": "pKd", "setting": "MAGI1_1, Q96QZ7", "value": "below the threshold"},
      {"measurement": "pKd", "setting": "DLG4_1, P78352", "value": 3.49},
      {"measurement": "pKd", "setting": "GRIP2_4, Q9C0E4", "value": "below the threshold"}
    ]}
  ]
}
